Reference: patent US20050042747A1, “Hivgp120-induced bob/gpr15 activation” (priority 2001, published 2005)

Key:
[1] = molecular target: CXCR4 (UniProt P61073); test: quantitative cellular enzyme-linked assay on HT-29-D4 cells
[2] = molecular target: GPR15/Bob (human) (UniProt P49685); test: cell-based or functional assay
[3] = molecular target: CCR5 (UniProt P51681); test: cell-based or functional assay

Chain of GPR15/Bob (human) (P49685 whole entry): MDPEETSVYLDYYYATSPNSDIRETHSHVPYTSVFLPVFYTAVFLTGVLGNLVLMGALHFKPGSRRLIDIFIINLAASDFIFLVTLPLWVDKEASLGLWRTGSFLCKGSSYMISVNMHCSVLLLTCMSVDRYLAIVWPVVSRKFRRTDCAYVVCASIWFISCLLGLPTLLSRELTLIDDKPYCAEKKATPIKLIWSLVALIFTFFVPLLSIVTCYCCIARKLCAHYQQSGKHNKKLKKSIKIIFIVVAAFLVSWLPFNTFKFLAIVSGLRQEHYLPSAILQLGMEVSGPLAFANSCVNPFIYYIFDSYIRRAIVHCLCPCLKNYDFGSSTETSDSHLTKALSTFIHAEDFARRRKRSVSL

Question: How did the concentration giving saturation binding [1] turn out when “anti-CXCR4 mouse monoclonal antibody (clone 12G5)” was run?
Answer: Its concentration giving saturation binding is 20 µg/mL.

Question: Which relative TEER 20 min after the addition of gp120, HT-29-D4 cells (relative TEER) [2] does the source give for “gp120(IIIB), purified from HIV-1(IIIB) (from UniProt P03375 33-511) (ligand)” here?
Answer: Its relative TEER 20 min after the addition of gp120, HT-29-D4 cells (relative TEER) is 1.6.

Question: How did the relative TEER 20 min after the addition of gp120, HT-29-D4 cells (relative TEER) [2] turn out when gp120(SEN) (ligand) was run?
Answer: Its relative TEER 20 min after the addition of gp120, HT-29-D4 cells (relative TEER) is 2.52.

Question: With gp120CM235 (ligand) as the substance, how does the least gp120 concentration inducing calcium signaling, Bob-transfected Ghost (3) cells [2] read?
Answer: Its least gp120 concentration inducing calcium signaling, Bob-transfected Ghost (3) cells is 8 pM.

Question: And the minimal concentration causing calcium signaling in HT-29 cells [2]?
Answer: The minimal concentration causing calcium signaling in HT-29 cells was 2.5 nM.

Question: What about the minimal gp120 concentration giving a calcium flux, transfected Ghost (3) cells [2] of the same substance?
Answer: Its minimal gp120 concentration giving a calcium flux, transfected Ghost (3) cells is 10 pM.

Question: How did the calcium signaling in HT-29 cells [2] turn out when “gp120MN (from UniProt P05877 32-513) (ligand)” was run?
Answer: Its calcium signaling in HT-29 cells is over 10 nM.

Question: Which calcium signaling in HT-29 cells [2] does the source give for “gp120SF2 (from UniProt P03378 32-509) (ligand)” here?
Answer: The calcium signaling in HT-29 cells was over 10 nM.

Question: Which minimal gp120 concentration giving a calcium flux, transfected Ghost (3) cells [3] does the source give for gp12093TH975 (ligand) here?
Answer: The minimal gp120 concentration giving a calcium flux, transfected Ghost (3) cells was 100 nM.

Question: What about the calcium signaling in HT-29 cells [2] of the same substance?
Answer: The calcium signaling in HT-29 cells was over 10 nM.
